B1: aNCL-CDR1 VHH (VHH)
VHH: QVQLQESGGGLVQPGGSLRLSCAASPQRRSARLSAWFRQAPGKEREFVARIYWSSGNTYYADSVKGRFAISRDIAKNTVDLTMNNLEPEDTAVYYCAARDGIPTSRSVESYNYWGQGTQVTVSS
notes: The entry is expected to hold leader peptide, His tag and HA tag like the others; also called aNCL-CDRl; a-NCL-CDRl VHH
B2: aNCL-CDR1-L VHH (VHH)
VHH: QVQLQESGGGLVQPGGSLRLSCAASSGGGSPQRRSARLSASGGGSWFRQAPGKEREFVARIYWSSGNTYYADSVKGRFAISRDIAKNTVDLTMNNLEPEDTAVYYCAARDGIPTSRSVESYNYWGQGTQVTVSS
notes: The entry holds leader peptide, His tag and HA tag; also called aNCL-CDRl-L; CDR1-grafted VHH with SGGGS linkers
B3: aNCL-CDR3 VHH (VHH)
VHH: QVQLQESGGGLVQPGGSLRLSCAASGRTFSDHSGYTYTIGWFRQAPGKEREFVARIYWSSGNTYYADSVKGRFAISRDIAKNTVDLTMNNLEPEDTAVYYCAAPQRRSARLSAWGQGTQVTVSS
notes: The entry holds leader peptide, His tag and HA tag; also called CDR3-grafted VHH; anti-nucleolin VHH
B4: aNCL-CDR3-L VHH (VHH)
VHH: QVQLQESGGGLVQPGGSLRLSCAASGRTFSDHSGYTYTIGWFRQAPGKEREFVARIYWSSGNTYYADSVKGRFAISRDIAKNTVDLTMNNLEPEDTAVYYCAASGGGSPQRRSARLSASGGGSWGQGTQVTVSS
notes: The entry holds leader peptide, His tag and HA tag; also called CDR3-grafted VHH with SGGGS linkers

Assays:
[1] = target: T1, human recombinant TNF-a (human, UniProt P01375 77-233); assay: ELISA, 200 ng human TNF-a coated, 100 pmol VHH, anti-HA-peroxidase detection
T1 construct: Coated at 200 ng per well in the ELISA; also called human TNF-a

[2] = target: T2, human recombinant nucleolin (human, UniProt P19338 1-710, limits assumed); assay: ELISA, 100 ng human nucleolin coated, 100 pmol VHH, anti-HA-peroxidase detection
T2 construct: also called human nucleolin
T2 sequence (P19338 whole entry, form in doubt): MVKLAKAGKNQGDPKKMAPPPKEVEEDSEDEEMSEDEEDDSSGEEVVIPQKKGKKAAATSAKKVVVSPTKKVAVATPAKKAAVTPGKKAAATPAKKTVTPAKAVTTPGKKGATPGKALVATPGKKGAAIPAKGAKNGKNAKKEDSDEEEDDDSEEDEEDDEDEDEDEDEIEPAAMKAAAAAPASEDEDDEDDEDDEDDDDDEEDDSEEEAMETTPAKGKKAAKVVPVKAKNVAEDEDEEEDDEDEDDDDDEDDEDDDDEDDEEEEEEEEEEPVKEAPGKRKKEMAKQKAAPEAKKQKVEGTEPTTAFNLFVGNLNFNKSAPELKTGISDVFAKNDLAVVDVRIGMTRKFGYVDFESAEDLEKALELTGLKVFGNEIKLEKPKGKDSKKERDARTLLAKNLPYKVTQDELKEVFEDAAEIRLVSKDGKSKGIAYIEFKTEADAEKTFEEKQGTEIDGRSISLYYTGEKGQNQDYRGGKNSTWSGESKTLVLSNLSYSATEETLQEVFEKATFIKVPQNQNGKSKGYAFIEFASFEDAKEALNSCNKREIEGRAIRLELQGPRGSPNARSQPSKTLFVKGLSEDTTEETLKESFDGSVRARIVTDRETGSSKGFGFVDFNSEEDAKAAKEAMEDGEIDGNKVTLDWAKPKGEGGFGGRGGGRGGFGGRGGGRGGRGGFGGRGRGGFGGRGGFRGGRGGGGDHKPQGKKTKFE

T1 sequence (P01375 77-233 limits assumed): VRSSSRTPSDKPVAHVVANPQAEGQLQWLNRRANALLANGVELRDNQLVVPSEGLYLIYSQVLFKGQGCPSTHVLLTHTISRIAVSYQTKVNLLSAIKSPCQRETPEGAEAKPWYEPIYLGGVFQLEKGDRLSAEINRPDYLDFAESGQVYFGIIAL

Binder | percent lower binding to TNF-a than the parental VHH [1] | fold increased nucleolin binding relative to the parental VHH [2]
B1 | ~40% | 2 fold
B2 | ~40% | 2 fold
B3 | ~40% | 3 fold
B4 | ~40% | 3 fold
